Laboratory results reported in IntAct's records for PubMed 19503079.

How the values were obtained:
[1] = target: T1, atxr5_arath ATXR5 (UniProt Q8VZJ1)
T1 sequence: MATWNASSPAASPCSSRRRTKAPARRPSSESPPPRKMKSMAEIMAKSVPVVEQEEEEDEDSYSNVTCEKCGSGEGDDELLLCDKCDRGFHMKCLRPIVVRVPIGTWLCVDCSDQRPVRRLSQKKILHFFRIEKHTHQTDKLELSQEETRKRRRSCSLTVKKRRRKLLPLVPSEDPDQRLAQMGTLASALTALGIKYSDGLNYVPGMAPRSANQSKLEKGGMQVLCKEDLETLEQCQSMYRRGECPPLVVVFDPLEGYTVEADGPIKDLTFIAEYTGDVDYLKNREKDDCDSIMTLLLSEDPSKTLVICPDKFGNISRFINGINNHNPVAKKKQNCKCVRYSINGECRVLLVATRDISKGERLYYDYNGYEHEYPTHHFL

[2] = target: T2, atxr6_arath ATXR6 (UniProt Q9FNE9)
T2 sequence: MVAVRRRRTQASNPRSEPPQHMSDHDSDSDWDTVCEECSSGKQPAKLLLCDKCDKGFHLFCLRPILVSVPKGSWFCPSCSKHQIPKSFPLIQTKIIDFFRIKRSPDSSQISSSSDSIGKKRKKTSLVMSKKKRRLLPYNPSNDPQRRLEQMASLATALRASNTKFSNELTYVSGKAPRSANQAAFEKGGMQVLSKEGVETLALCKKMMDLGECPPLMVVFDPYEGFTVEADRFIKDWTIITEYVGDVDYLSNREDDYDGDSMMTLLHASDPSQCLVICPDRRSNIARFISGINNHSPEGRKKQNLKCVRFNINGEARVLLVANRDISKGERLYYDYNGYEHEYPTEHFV

Histone H3.1 (Arabidopsis thaliana (Mouse-ear cress)) (from UniProt P59226) K28A
effect of a mutation on the interaction [1]: disrupting interaction | effect of a mutation on the interaction [2]: disrupting interaction
